Assay results published in the supplement of paper PMC9732359.
± gives the uncertainty stated by the source.

assay: protein stability index of a GFP-peptide fusion (yeast GPS) (PSI 1-4); higher = more stable; sorted into four equal gates, so the index is relative within each strain; conditions: doa10∆
Procedure, shortened: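 Each library plasmid carries Cherry plus GFP with a tiled 17-residue yeast protein peptide fused downstream, and the pooled library was carried in yeast. Mid-log cultures in leucine-free medium were sorted into four equal gates by GFP/Cherry ratio. Reads from Illumina sequencing of PCR-amplified plasmids from each gate were assigned to strains by barcodes. Per peptide, the protein stability index was computed as the summed products of gate read frequency and gate number.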

Sequence | protein stability index
GKKWFEVSQFLIENGAS [NAS6] | 1.91 ± 0.084
GKPTVNKKPKNKKKGRK [SRP72] | 3.42 ± 0.084
GKPVSLPLLYNFNPDNG [FAS1] | 2.93 ± 0.095
GKYTLGYKSTVKSLRQG [RPL30] | 2.25 ± 0.072
GLFPFESYKPSVQLPDM [SWI3] | 3.05 ± 0.09
GLFQVLHNFESVAPTKQ [NUT1] | 2.99 ± 0.075
GLGYVFEFQYLTIGVKF [SRB5] | 1.15 ± 0.088
GLHSSEYKLRSLTLSFI [ECM29] | 2.18 ± 0.057
GLLKRGDTVRILDTSQS [SNU114] | 3.08 ± 0.084
GLMLGEFVDDYTVNVVD [RPN11] | 3.32 ± 0.13
GLNAKQLYKARMSIKLL [POP1] | 2.13 ± 0.082
GLNDLVEQYKFRETTHS [BRR2] | 3.16 ± 0.091
GLNNDFLFQNINFERID [GRR1] | 2.09 ± 0.05
GLSPKKVGEDIAKATKE [RPL12A] | 3.03 ± 0.16
GLVCADTFRAGAFDQLK [SRP54] | 3.14 ± 0.1
GLYKMMEERDGAKFENI [AAR2] | 1.49 ± 0.19
GMIVISMENYHLLIKII [SRB8] | 1.96 ± 0.043
GMTKSNIYNFSPSERIE [BRR2] | 3.18 ± 0.082
GMTPCTVSPDFVAATTN [FAS1] | 1.83 ± 0.076
GNDAKPAKVEDVQKSSD [YLR335W/NUP2] | 3.3 ± 0.064
GNEVSSLYPPPPPYVKF [MED7] | 3.17 ± 0.087

Sequence | protein stability index
GNGITNTTTRVIPQVEV [SNF5] | 3.02 ± 0.15
GNIISSDKTIVPTSIQT [SIN4] | 2.42 ± 0.061
GNIKDLPENIILTSLMR [CSN9] | 2.69 ± 0.1
GNLSGKRVDFSGRTVIS [RPO31] | 3 ± 0.073
GNNNNNNSGNDNNNTTN [MED2] | 3.06 ± 0.056
GNNVQENELVITSIPKP [RMP1] | 3.42 ± 0.14
GNPGRIRVLFKENGQLI [SEC65] | 2.38 ± 0.055
GNQQQQLQQQPQMQCAL [YGL172W/NUP49] | 2.79 ± 0.17
GNSGVVRATFRNNLPAK [RPL33A] | 2.88 ± 0.085
GNYSHLMEKNRIRKLTG [REC8] | 1.58 ± 0.067
GPKLRASDLKINELFKK [RPN8] | 1.98 ± 0.12
GPNNFIWPAEDALRRGM [MED4] | 3.35 ± 0.13
GQGEQVDDVLETISAIE [RPN1] | 3.4 ± 0.27
GQKLLAIKYGYEDSGST [SRB4] | 2.83 ± 0.11
GQQTAQPQQSTIGGGLF [YGR119C/NUP57] | 2.88 ± 0.072
GQRTAYHSKRDASTPLR [RPB2] | 3.32 ± 0.092
GQSSSIQSSLMTNLTYF [YCS4] | 2.86 ± 0.095
GQSTILVGSEIYEKLKN [CDC53] | 2.67 ± 0.14
GSDEAYVKDARKDTVSR [RPC40] | 3.23 ± 0.11
GSELSSKIRKIHIQETQ [SIR3] | 2.61 ± 0.069
GSKQILKTEAANVLDPS [BRR2] | 3.11 ± 0.075

same assay, conditions: pdr5∆

Sequence | protein stability index
GKKRFRVVTVDGKLIDI [SMC4] | 3.49 ± 0.14
GKKWFEVSQFLIENGAS [NAS6] | 1.55 ± 0.061
GKPTVNKKPKNKKKGRK [SRP72] | 3.29 ± 0.1
GKPVSLPLLYNFNPDNG [FAS1] | 3.27 ± 0.1
GKYTLGYKSTVKSLRQG [RPL30] | 2.34 ± 0.049
GLFPFESYKPSVQLPDM [SWI3] | 2.88 ± 0.081
GLFQVLHNFESVAPTKQ [NUT1] | 2.87 ± 0.075
GLGYVFEFQYLTIGVKF [SRB5] | 1.53 ± 0.1
GLHSSEYKLRSLTLSFI [ECM29] | 2.21 ± 0.061
GLLKRGDTVRILDTSQS [SNU114] | 3.21 ± 0.1
GLMLGEFVDDYTVNVVD [RPN11] | 3.26 ± 0.1
GLNAKQLYKARMSIKLL [POP1] | 1.73 ± 0.08
GLNDLVEQYKFRETTHS [BRR2] | 3.03 ± 0.074
GLNNDFLFQNINFERID [GRR1] | 2.16 ± 0.057
GLSPKKVGEDIAKATKE [RPL12A] | 3.22 ± 0.14
GLVCADTFRAGAFDQLK [SRP54] | 3.54 ± 0.1
GLYKMMEERDGAKFENI [AAR2] | 1.87 ± 0.12
GMIVISMENYHLLIKII [SRB8] | 2.04 ± 0.044
GMTKSNIYNFSPSERIE [BRR2] | 3.38 ± 0.082
GMTPCTVSPDFVAATTN [FAS1] | 1.98 ± 0.054
GNDAKPAKVEDVQKSSD [YLR335W/NUP2] | 3.2 ± 0.058
GNEVSSLYPPPPPYVKF [MED7] | 3.08 ± 0.065

Sequence | protein stability index
GNGITNTTTRVIPQVEV [SNF5] | 2.58 ± 0.095
GNIISSDKTIVPTSIQT [SIN4] | 2.61 ± 0.054
GNIKDLPENIILTSLMR [CSN9] | 2.93 ± 0.075
GNLSGKRVDFSGRTVIS [RPO31] | 3.01 ± 0.081
GNNNNNNSGNDNNNTTN [MED2] | 3.05 ± 0.058
GNNVQENELVITSIPKP [RMP1] | 3.4 ± 0.11
GNPGRIRVLFKENGQLI [SEC65] | 2.24 ± 0.072
GNQQQQLQQQPQMQCAL [YGL172W/NUP49] | 2.66 ± 0.19
GNSGVVRATFRNNLPAK [RPL33A] | 3.17 ± 0.12
GNYSHLMEKNRIRKLTG [REC8] | 2.04 ± 0.061
GPKLRASDLKINELFKK [RPN8] | 1.42 ± 0.11
GPNNFIWPAEDALRRGM [MED4] | 3.15 ± 0.11
GQGEQVDDVLETISAIE [RPN1] | 3.05 ± 0.18
GQKLLAIKYGYEDSGST [SRB4] | 2.91 ± 0.098
GQQTAQPQQSTIGGGLF [YGR119C/NUP57] | 3.19 ± 0.052
GQRTAYHSKRDASTPLR [RPB2] | 3.1 ± 0.11
GQSSSIQSSLMTNLTYF [YCS4] | 2.74 ± 0.071
GQSTILVGSEIYEKLKN [CDC53] | 3.12 ± 0.15
GSDEAYVKDARKDTVSR [RPC40] | 3.17 ± 0.12
GSELSSKIRKIHIQETQ [SIR3] | 2.54 ± 0.084
GSKQILKTEAANVLDPS [BRR2] | 2.99 ± 0.076

same assay, conditions: san1∆

Sequence | protein stability index
GKKRFRVVTVDGKLIDI [SMC4] | 3.31 ± 0.076
GKKWFEVSQFLIENGAS [NAS6] | 1.4 ± 0.1
GKPTVNKKPKNKKKGRK [SRP72] | 2.93 ± 0.1
GKPVSLPLLYNFNPDNG [FAS1] | 2.62 ± 0.075
GKYTLGYKSTVKSLRQG [RPL30] | 2.54 ± 0.09
GLFPFESYKPSVQLPDM [SWI3] | 2.96 ± 0.067
GLFQVLHNFESVAPTKQ [NUT1] | 2.75 ± 0.052
GLGYVFEFQYLTIGVKF [SRB5] | 1.08 ± 0.15
GLHSSEYKLRSLTLSFI [ECM29] | 2.41 ± 0.066
GLLKRGDTVRILDTSQS [SNU114] | 3.15 ± 0.054
GLMLGEFVDDYTVNVVD [RPN11] | 3.13 ± 0.14
GLNAKQLYKARMSIKLL [POP1] | 2.41 ± 0.06
GLNDLVEQYKFRETTHS [BRR2] | 2.84 ± 0.082
GLNNDFLFQNINFERID [GRR1] | 2.19 ± 0.055
GLSPKKVGEDIAKATKE [RPL12A] | 3.13 ± 0.18
GLVCADTFRAGAFDQLK [SRP54] | 3.34 ± 0.11
GLYKMMEERDGAKFENI [AAR2] | 1.68 ± 0.2
GMIVISMENYHLLIKII [SRB8] | 2.71 ± 0.048
GMTKSNIYNFSPSERIE [BRR2] | 3.01 ± 0.19
GMTPCTVSPDFVAATTN [FAS1] | 1.86 ± 0.12
GNDAKPAKVEDVQKSSD [YLR335W/NUP2] | 3.17 ± 0.052
GNEVSSLYPPPPPYVKF [MED7] | 2.74 ± 0.079

Sequence | protein stability index
GNGITNTTTRVIPQVEV [SNF5] | 1.98 ± 0.21
GNIISSDKTIVPTSIQT [SIN4] | 2.1 ± 0.076
GNIKDLPENIILTSLMR [CSN9] | 2.43 ± 0.14
GNLSGKRVDFSGRTVIS [RPO31] | 3.36 ± 0.073
GNNNNNNSGNDNNNTTN [MED2] | 3.08 ± 0.045
GNNVQENELVITSIPKP [RMP1] | 3.37 ± 0.065
GNPGRIRVLFKENGQLI [SEC65] | 2.33 ± 0.11
GNQQQQLQQQPQMQCAL [YGL172W/NUP49] | 2.87 ± 0.1
GNSGVVRATFRNNLPAK [RPL33A] | 3.19 ± 0.099
GNYSHLMEKNRIRKLTG [REC8] | 2.56 ± 0.1
GPKLRASDLKINELFKK [RPN8] | 1.1 ± 0.13
GPNNFIWPAEDALRRGM [MED4] | 3.03 ± 0.079
GQGEQVDDVLETISAIE [RPN1] | 2.69 ± 0.19
GQKLLAIKYGYEDSGST [SRB4] | 2.53 ± 0.1
GQQTAQPQQSTIGGGLF [YGR119C/NUP57] | 2.93 ± 0.053
GQRTAYHSKRDASTPLR [RPB2] | 3.12 ± 0.066
GQSSSIQSSLMTNLTYF [YCS4] | 2.56 ± 0.086
GQSTILVGSEIYEKLKN [CDC53] | 1.36 ± 0.21
GSDEAYVKDARKDTVSR [RPC40] | 3.13 ± 0.061
GSELSSKIRKIHIQETQ [SIR3] | 2.58 ± 0.075
GSKQILKTEAANVLDPS [BRR2] | 3 ± 0.056

same assay, conditions: ubr1∆

Sequence | protein stability index
GKKRFRVVTVDGKLIDI [SMC4] | 3.55 ± 0.18
GKKWFEVSQFLIENGAS [NAS6] | 1.49 ± 0.074
GKLKRCSRCGSVTRAGN [SIN4] | 3.34 ± 0.16
GKPTVNKKPKNKKKGRK [SRP72] | 3.24 ± 0.092
GKPVSLPLLYNFNPDNG [FAS1] | 2.92 ± 0.076
GKYTLGYKSTVKSLRQG [RPL30] | 2.47 ± 0.048
GLFPFESYKPSVQLPDM [SWI3] | 2.81 ± 0.07
GLFQVLHNFESVAPTKQ [NUT1] | 3.12 ± 0.035
GLGYVFEFQYLTIGVKF [SRB5] | 1.31 ± 0.087
GLHSSEYKLRSLTLSFI [ECM29] | 2.46 ± 0.049
GLLKRGDTVRILDTSQS [SNU114] | 2.86 ± 0.1
GLMLGEFVDDYTVNVVD [RPN11] | 3.09 ± 0.076
GLNAKQLYKARMSIKLL [POP1] | 2.37 ± 0.029
GLNDLVEQYKFRETTHS [BRR2] | 3.1 ± 0.061
GLNNDFLFQNINFERID [GRR1] | 2.12 ± 0.042
GLSPKKVGEDIAKATKE [RPL12A] | 2.77 ± 0.24
GLVCADTFRAGAFDQLK [SRP54] | 3.25 ± 0.084
GLYKMMEERDGAKFENI [AAR2] | 1.74 ± 0.056
GMIVISMENYHLLIKII [SRB8] | 2.66 ± 0.045
GMTKSNIYNFSPSERIE [BRR2] | 2.96 ± 0.059
GMTPCTVSPDFVAATTN [FAS1] | 1.99 ± 0.07
GNDAKPAKVEDVQKSSD [YLR335W/NUP2] | 3.13 ± 0.051

Sequence | protein stability index
GNEVSSLYPPPPPYVKF [MED7] | 3.13 ± 0.049
GNGITNTTTRVIPQVEV [SNF5] | 2.49 ± 0.1
GNIISSDKTIVPTSIQT [SIN4] | 2.77 ± 0.051
GNIKDLPENIILTSLMR [CSN9] | 3.03 ± 0.1
GNLSGKRVDFSGRTVIS [RPO31] | 3.17 ± 0.089
GNNNNNNSGNDNNNTTN [MED2] | 2.93 ± 0.078
GNNVQENELVITSIPKP [RMP1] | 3.15 ± 0.064
GNPGRIRVLFKENGQLI [SEC65] | 2.44 ± 0.059
GNSGVVRATFRNNLPAK [RPL33A] | 3.22 ± 0.067
GNYSHLMEKNRIRKLTG [REC8] | 1.9 ± 0.062
GPKLRASDLKINELFKK [RPN8] | 1.08 ± 0.13
GPNNFIWPAEDALRRGM [MED4] | 3.27 ± 0.08
GQGEQVDDVLETISAIE [RPN1] | 2.91 ± 0.19
GQKLLAIKYGYEDSGST [SRB4] | 3.25 ± 0.11
GQQTAQPQQSTIGGGLF [YGR119C/NUP57] | 3.28 ± 0.067
GQRTAYHSKRDASTPLR [RPB2] | 3.25 ± 0.071
GQSSSIQSSLMTNLTYF [YCS4] | 2.95 ± 0.065
GQSTILVGSEIYEKLKN [CDC53] | 1.96 ± 0.077
GSDEAYVKDARKDTVSR [RPC40] | 3.35 ± 0.13
GSELSSKIRKIHIQETQ [SIR3] | 2.68 ± 0.056
GSKQILKTEAANVLDPS [BRR2] | 3.19 ± 0.067
